Data reported in patent publication US6512097.
Positions count from the first letter of the chain named. Names and notes keep the numbering of the source. Read-outs that look alike come from different tables or passages of the source.

Legend:
[1] = target: T1, c-erbB-2 ECD with a Ser-Gly-His6 C-terminal fusion (UniProt P04626 23-652); assay: competition ELISA, sFv preincubated with soluble c-erbB-2 (0 to 100 nM)
T1 construct: extracellular domain; Expressed from CHO cells, IMAC purified; coupled to a CM5 chip, coated on plates, or biotinylated with NHS-LC-biotin; also called c-erbB-2 extracellular domain; biotinylated c-erbB-2 ECD
Experimental: Meth. 77: 305–319). Immunolon 4 ELISA plates (Dynatech) were coated with avidin in PBS (10 μg/ml) at 4° C. overnight. Biotinylated c-erbB-2 ECD (5 μg/ml) was added to the wells and incubated for 30 min at room temperature. Bacterial supernatant containing sFv was incubated with varying concentrations of c-erbB-2 (0 to 100 nM) at 4° C. for 1 h. The amount of free sFv was then determined by transferring 100 μl of each mixture into the wells of the previously prepared ELISA plate and incubating for 1 h at 4° C. Binding of sFv was detected as under ELISA screening and the IC50 calculated as described (Friguet et al. (1985), supra)
(§1) These clones were purified by IMAC after subcloning into PUC119SFI/NotmycHis, and the affinity determined by Scatchard analysis.

[2] = target: T2, c-erbB-2 expressed on cells (SK-OV-3, SK-BR-3) (UniProt P04626 23-1255, limits assumed); assay: Scatchard after radioiodination, SK-OV cells
T2 construct: whole, on cells; also called native c-erbB-2 expressed on cells; c-erbB-2 on SK-OV-3 cells
Experimental: (§2) All assays were performed in triplicate. Briefly, […] of radioiodinated sFv was added to 5×10^6 SK-OV cells in the presence of increasing concentrations of unlabeled sFv from the same preparation. After a 30 minute incubation at 20° C., the samples were washed with PBS at 4° C. and centrifuged at 500 g. The amount of labeled sFv bound to the cells was determined by counting the pellets in a gamma counter and the K_a, and K_d were calculated using the EBDA program (V 2.0, G. A. McPherson, 1983). The K_d of all the other isolated sFv were determined using surface plasmon resonance in a BIAcore (Pharmacia). In a BIAcore flow cell, approximately 1400 resonance units (RU) of c-erbB-2 ECD (25 μg/ml in 10 mM sodium acetate, pH 4.5) was coupled to a CM5 sensor chip (Johnsson et al. (1991), supra). Association and dissociation-rates were measured under continuous flow of […] using a concentration range from 50 to 800 nM. Rate constant $kon$ was determined from a plot of (1(dR/dt))/t vs concentration (Karlsson et al. (1991), supra). Rate constant $Hoff$ was determined from the dissociation part of the sensorgram at the highest concentration of sFv analyzed.
as §1

[3] = target: T1, c-erbB-2 ECD with a Ser-Gly-His6 …; assay: SPR BIAcore
[4] = target: T1, c-erbB-2 ECD with a Ser-Gly-His6 …; assay: SPR BIAcore; remark: listed apart in the source
Experimental: as §2
Dashes indicate sequence identity. Mutations arising from PCR error and located outside V_H CDR3 are listed under the heading other mutations. F = frequency of isolated scFv. *$koff$ determined from unpurified scFv samples. Underline indicates mutated residue.

[5] = target: T1, c-erbB-2 ECD with a Ser-Gly-His6 …; assay: SPR BIAcore; remark: listed apart in the source
[6] = target: T1, c-erbB-2 ECD with a Ser-Gly-His6 …; assay: SPR BIAcore; remark: listed apart in the source
[7] = target: T1, c-erbB-2 ECD with a Ser-Gly-His6 …; assay: SPR BIAcore; remark: listed apart in the source
Experimental: as §2

[8] = target: T1, c-erbB-2 ECD with a Ser-Gly-His6 …; assay: SPR BIAcore; remark: listed apart in the source
Experimental: as §2

[9] = target: T1, c-erbB-2 ECD with a Ser-Gly-His6 …; assay: SPR BIAcore (Kd ND, expression too low)
[10] = target: T1, c-erbB-2 ECD with a Ser-Gly-His6 …; assay: SPR BIAcore, unpurified sFv

B1: C6VLF (scFv)
scFv: QVQLLQSGAELKKPGESLKISCKGSGYSFTSYWIAWVRQMPGKGLEYMGLIYPGDSDTKYSPSFQGQVTISVDKSVSTAYLQWSSLKPSDSAVYFCARHDVGYCSSSNCAKWPEYFQHWGQGTLVTVSSGGGGSGGGGSGGGGSQSVLTQPPSMSAAPGQKVTISCSGSSSNIGNNYVSWYQQFPGTAPKLLIHDNNKRPSGIPDRISGSKSGTSASLAISGLQSDDEADYYCAAWDDSLNGWVFGGGTKLTVLG
modifications: Radioiodinated for the Scatchard assay; the label is not carried in the letters.
notes: Light chain shuffled; mixture of monomer and dimer by gel filtration
[1]
  IC50: 7.5 nM
[2]
  Kd: 79 nM

B2: C6VLE (scFv)
scFv: QVQLLQSGAELKKPGESLKISCKGSGYSFTSYWIAWVRQMPGKGLEYMGLIYPGDSDTKYSPSFQGQVTISVDKSVSTAYLQWSSLKPSDSAVYFCARHDVGYCSSSNCAKWPEYFQHWGQGTLVTVSSGGGGSGGGGSGGGGSQSVLTQPPSVSAAAGQKVTISCSGSSSSIGRNYVSWNQQLPGTAPKLLIWRNNQRPSGVPDRFSGSKSGTSASLAISGVRSEDEADYYCASWDNSLSGWVFGGGTKLTVLG
modifications: Radioiodinated for the Scatchard assay; the label is not carried in the letters.
notes: as for B1
[1]
  IC50: 2.8 nM
[2]
  Kd: 71 nM

B3: C6ML3-9 (scFv)
scFv: QVQLLQSGAELKKPGESLKISCKGSGYSFTSYWIAWVRQMPGKGLEYMGLIYPGDSDTKYSPSFQGQVTISVDKSVSTAYLQWSSLKPSDSAVYFCARHDVGYCSSSNCAKWPEYFQHWGQGTLVTVSSGGGGSGGGGSGGGGSQSVLTQPPSVSAAPGQKVTISCSGSSSNIGNNYVSWYQQLPGTAPKLLIYGHTNRPAGVPDRFSGSKSGTSASLAISGFRSEDEADYYCASWDYTLSGWVFGGGTKLTVLG
notes: template (wt) of the VH CDR3 libraries; also called C6ML3-9 (wt); C6ML-9
[3]
  Kd: 1 nM
  koff: 0.00019 s⁻¹
[4]
  Kd: 1 nM
  koff: 0.00076 s⁻¹
[5]
  Kd: 1 nM
  koff: 0.00092 s⁻¹
[6]
  t1/2 calculated from koff: 13 min

B4: C6MH3-C4 (scFv)
scFv: B3 scFv with K111V
notes: C6ML3-9 sFv, VH CDR3 library C mutant; also called mutant sFv K100gV
[4]
  Kd: 0.37 nM
  koff: 0.0002 s⁻¹
[6]
  fold lower Kd than wt: 2.7 fold
  fold lower koff than C6ML3-9: 3.8 fold

B5: C6MH3-D2 (scFv)
scFv: B3 scFv with Y115W, F116L, Q117G, H118V
notes: C6ML3-9 sFv, VH CDR3 library D mutant
[4]
  Kd: 0.16 nM
  koff: 0.0002 s⁻¹
[6]
  fold change of Kd against wt C6ML3-9: 7 fold

B6: C6L1 sFv (scFv)
scFv: QVQLLQSGAELKKPGESLKISCKGSGYSFTSYWIAWVRQMPGKGLEYMGLIYPGDSDTKYSPSFQGQVTISVDKSVSTAYLQWSSLKPSDSAVYFCARHDVGYCSSSNCAKWPEYFQHWGQGTLVTVSSGGGGSGGGGSGGGGSQSVLTQPPSVSGAPGQWVTISCSGSSSNIGNNYVSWYQQLPGTAPKLLIYDNNKRPSGVPDRFSGSQSGTSASLAISGLRSEDEADYYCAAWDDSLSGWVFGGGTKLTVLG
notes: Light chain shuffled: C6.5 VH with new VL; also called C6L1 (light chain shuffle)
[7]
  Kd: 2.6 nM
  koff: 0.002 s⁻¹
  kon: 780000 M⁻¹ s⁻¹
[6]
  Kd: 2.5 nM
  fold higher affinity than parental: 6 fold
[8]
  Kd: 2.6 nM

B7: C6MH3-D7 (scFv)
scFv: B3 scFv with Y115W, F116Q, Q117D, H118P
notes: C6ML3-9 sFv, VH CDR3 library D mutant; expression too low for a purified Kd
[9]
  koff: 0.00031 s⁻¹

B8: C6ML3-A2 (scFv)
scFv: B3 scFv with Y103F
notes: C6ML3-9 sFv, VH CDR3 library A clone; unpurified in the koff screen; also called mutant sFv with the conservative replacement of Y99F
[10]
  fold lower apparent koff than wt: 2.5 fold

B9: C6MH3-B47 (scFv)
scFv: B3 scFv with S105T, S106D, S107R, N108S
notes: C6ML3-9 sFv, VH CDR3 library B mutant
[4]
  Kd: 0.11 nM
  koff: 7.5e-05 s⁻¹
[6]
  fold lower Kd than C6ML3-9: 9 fold
  fold lower Kd than C6.5: 145 fold
  fold lower koff than C6ML3-9: 10 fold
  fold lower koff than C6.5: 84 fold

B10: C6H1 (scFv)
chain: QVQLVESGAEVKKPRESLKISCKGSGYSFTSYEIAWVRQMPGKGLEYMGLIYPGDSDTKYSPSFQGQVTISVDKSVSTAYLQWSSLKPSDTAMYYCARHDVGYCSSSNCAKWPEYFQHWGQGTLVTVSSGGGGSGGGGSGGGGSQSVLTQPPSVSAAPGQKVTISCSGSSSNIGNNYVSWYQQLPGTAPKLLIYGHTNRPAGVPDRFSGSKSGTSASLAISGFRSEDEADYYCAAWDDSLSGWVFGGGTKLTVLG
[6]
  fold higher affinity than C6.5: 3 fold
[8]
  Kd: 5.9 nM

B11: C6H1L1 (scFv)
chain: B6 scFv with L5V, Q6E, L11V, G15R, W33E, S91T, V93M, F95Y
[8]
  Kd: 15 nM

B12: C6H2 (scFv)
scFv: B10 chain with E6Q, E33W, G54A, D57K, K59I, P88T
notes: Heavy chain shuffled
[6]
  fold higher affinity than C6.5: 5 fold
[8]
  Kd: 3.1 nM

B13: C6VLD (scFv)
scFv: QVQLLQSGAELKKPGESLKISCKGSGYSFTSYWIAWVRQMPGKGLEYMGLIYPGDSDTKYSPSFQGQVTISVDKSVSTAYLQWSSLKPSDSAVYFCARHDVGYCSSSNCAKWPEYFQHWGQGTLVTVSSGGGGSGGGGSGGGGSQSVLTQPPSVSAAPGQKVTISCSGTNSNIGNNYVSWYQQLPGTAPKLLIYTNDQRPSGVPDRFSGSKSGTSASLAISGLQSEDEADYYCAAWDDSLNGWMFGGGTKLTVLG
modifications: Radioiodinated for the Scatchard assay; the label is not carried in the letters.
notes: as for B1
[1]
  IC50: 5.8 nM
[2]
  Kd: 26 nM

B14: C6VLB (scFv)
scFv: QVQLLQSGAELKKPGESLKISCKGSGYSFTSYWIAWVRQMPGKGLEYMGLIYPGDSDTKYSPSFQGQVTISVDKSVSTAYLQWSSLKPSDSAVYFCARHDVGYCSSSNCAKWPEYFQHWGQGTLVTVSSGGGGSGGGGSGGGGSQSVLTQPPSVSAAPGQKVTISCSGSSSNIGNNYVSWYQQLPGTAPKLLIYSDNQRPSGVPDRFSGSKSGTSASLAISGLRSEDEADYYCAAWDDSLSGHWVFGGGTKLTVLG
notes: as for B1
[1]
  IC50: 10 nM
[2]
  Kd: 30 nM

B15: C6H2L1 (scFv)
scFv: B6 scFv with L5V, L11V, G15R, G54A, D57K, K59I, P88T, S91T, V93M, F95Y
[8]
  Kd: 6 nM
